Results on one molecule are retold here after patent EP1736482A1 (INSERM (Institut National de la Santé et de la Recherche …, dated 2006).

The target of this assay is T1, recombinant human 4-1BB-Fc chimera (R&D Systems) (human, UniProt Q07011 24-186).
T1 construct: Bought; Covalently coupled to a CM5 chip at 500 resonance units; also called 4-IBB-Fc; recombinant 4-1BB; Fc part of the bought chimera not given, not described
The assay can be described thus: SPR (BIAcore 2000), 4-1BB-Fc coupled to CM5 chip, ligand in flow, 25°C.

B1: FLAG-4-1BBL (Alexis), FLAG peptide coupled to the TNF homology domain of human 4-1BBL through an undefined 11 aa linker (ligand, UniProt P41273 93-254, looked up)
chain: AQLVAQNVLLIDGPLSWYSDPGLAGVSLTGGLSYKEDTKELVVAKAGVYYVFFQLELRRVVAGEGSGSVSLALHLQPLRSAAGAAALALTVDLPPASSEARNSAFGFQGRLLHLSAGQRLGVHLHTEARARHAWQLTQGATVLGLFRVTPEIPAGLPSPRSE
notes: domain: TNF homology domain (THD); Bought from Alexis, produced in HEK293; also called FLAG-tagged 4-1BBL; soluble FLAG-4-1BBL; not shown: FLAG peptide (8aa); undefined 11aa linker
As for B1, the Kd turned out to be 55.2 nM, the “fold lower association rate (kon) against WT AviTag-4-1BBL” value stood at 30 fold, the koff was 0.00037 s⁻¹ and the kon is 6700 M⁻¹ s⁻¹.
